Results reported in paper PMC2527117 (The Journal of Biological Chemistry, 2008).

Biological target: the molecule itself
Experiment: SEC

B1: PfUIS3 soluble domain (residues 83-229) (domain or fragment, Plasmodium falciparum, UniProt Q8IEU1 83-229, looked up)
chain: YYGYKKSREDDLYYNKYLEYRNGEYNIKYQDGAIASTSEFYIEPEGINKINLNKPIIENKNNVDVSIKRYNNFVDIARLSIQKHFEHLSNDQKDSHVNNMEYMQKFVQGLQENRNISLSKYQENKAVMDLKYHLQKVYANYLSQEEN
stoichiometry N: 2
